Assay results: article PMC12817906, “SVCV phosphoprotein hijacks phase separation to immobilize the IRF3-TBK1 signaling axis and suppress interferon antiviral immunity” (Journal of Virology, 2025)
Where “and” joins values, the source holds several entries; their conditions need not be identical. Equal entries are not always repeated.

T1: mCherry-tagged zebrafish TBK1 protein (zebrafish, UniProt A0ACM8QAS8 1-727)
T1 construct: also called mCherry-TBK1; pFastBac1-mCherry-His-TBK1; source: Sf9 (baculovirus), purified (Ni-NTA)
T1 sequence: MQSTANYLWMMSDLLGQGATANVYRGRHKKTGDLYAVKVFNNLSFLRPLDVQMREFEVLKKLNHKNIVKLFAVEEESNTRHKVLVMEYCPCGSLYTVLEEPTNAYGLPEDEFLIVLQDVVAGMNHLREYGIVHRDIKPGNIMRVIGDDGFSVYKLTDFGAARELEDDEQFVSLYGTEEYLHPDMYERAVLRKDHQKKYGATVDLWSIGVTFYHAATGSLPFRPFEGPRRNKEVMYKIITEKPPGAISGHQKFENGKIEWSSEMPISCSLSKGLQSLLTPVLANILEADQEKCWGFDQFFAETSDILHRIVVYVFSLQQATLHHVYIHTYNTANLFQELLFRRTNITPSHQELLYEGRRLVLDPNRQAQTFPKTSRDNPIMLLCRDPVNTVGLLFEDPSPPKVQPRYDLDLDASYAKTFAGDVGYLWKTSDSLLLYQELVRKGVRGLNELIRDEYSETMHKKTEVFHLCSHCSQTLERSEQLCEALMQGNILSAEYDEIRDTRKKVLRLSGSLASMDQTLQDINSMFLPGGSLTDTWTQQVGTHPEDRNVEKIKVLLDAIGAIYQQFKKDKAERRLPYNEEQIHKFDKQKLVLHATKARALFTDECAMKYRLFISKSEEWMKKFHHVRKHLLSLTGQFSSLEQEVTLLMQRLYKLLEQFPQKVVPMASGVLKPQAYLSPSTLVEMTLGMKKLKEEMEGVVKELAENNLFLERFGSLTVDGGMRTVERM

B1: purified recombinant SVCV-P (His-tagged) (natural protein)
chain: MSLHSKLSESLKAYADLDKTVKEIEEQVSSMEEPVPKTVKYVTFEENLSEEEWESDSGDDDEDSIDDSLIPDYLRESSSITVDEDEEDQKEDMEEHLPTVSWEEEPTGIDIGFGPGIVMPSVSNHEGGTYVRYNGLGGVDPNCKDLISKMMRSLIGQIGNKYGYDIDLFDYQGDFLEVFLPHKPSKEDVRPDIRIGKKNEEGTSKQVSKPRGKEKIVLKTGDECGRFPMNKEAKKREPEGLWEVMKVLSVQFDPWKEDEPPLSLTIRDLFISESEFRLHCNHSQTEREMALVGIKLRRLYNKLYQKYRL
notes: phosphoprotein (P) of spring viremia of carp virus; The MST methods say only 'purified SVCV-P'; the His-only construct is surmised (EGFP-GST, EGFP-His and baculovirus EGFP-His forms were also made); also called pET28a-SVCV-P-His; source: E. coli BL21 (DE3), purified (Ni-NTA)

Legend:
[1] = target: mCherry-tagged zebrafish TBK1 protein (zebrafish); assay: MST; Monolith NT.115; mCherry-tagged TBK1 as the fluorescent protein, unlabeled SVCV-P or IRF3 at 16 concentrations, protein storage buffer, room temperature 10 min, 40% LED, medium MST power
[2] = target: purified recombinant zebrafish IRF3 (His-tagged) (zebrafish); assay: MST; Monolith NT.115; homotypic titration (SVCV-P with SVCV-P, IRF3 with IRF3), labeled protein with unlabeled ligand at 16 concentrations, room temperature; which label was used is not told
[3] = target: the molecule itself; assay: as above
[4] = target: T1, mCherry-tagged zebrafish TBK1 protein; assay: MST; Monolith NT.115; mCherry-tagged TBK1 as the fluorescent protein, unlabeled SVCV-P or IRF3 at 16 concentrations, protein storage buffer, room temperature 10 min, 40% LED, medium MST power; conditions: both partners purified

| Molecule | Kd [1] | Kd [2] | Kd [3] | Kd [4] |
| --- | --- | --- | --- | --- |
| purified recombinant zebrafish IRF3 (His-tagged) (natural protein) | 81.7 µM | 70 µM | – | – |
| B1 | – | – | 30.4 µM | 8.34 µM and 2.98 µM |
